{"source": "patent US20060211042A1", "about": "(Johns Hopkins, published 2006)", "binders": {"B1": {"name": "GTRAP3-18 (Glutamate Transporter Associated Protein of EAAT3), HA-tagged, expressed in HEK 293T cells (other, not shown: small tags and cut ends)", "chain": "MDVNLAPLRAWDDFFPGSDRFARPDFRDISKWNNRVVSNLLYYQTNYLVVAAMMISVVGFLSPFNMILGGIIVVLVFTGFVWAAHNKDILRRMKKQYPTAFVMVVMLASYFLISMFGGVMVFVFGITFPLLLMFIHASLRLRNLKNKLENKMEGIGLKKTPMGIILDALEQQEDSINKFADYISKARE"}}, "biological_target": "T1, rEAAT3/EAAC1 (rat excitatory amino acid transporter 3), full length, expressed in HEK 293T cells (rat, UniProt P51907 1-523)", "T1 sequence (looked up)": "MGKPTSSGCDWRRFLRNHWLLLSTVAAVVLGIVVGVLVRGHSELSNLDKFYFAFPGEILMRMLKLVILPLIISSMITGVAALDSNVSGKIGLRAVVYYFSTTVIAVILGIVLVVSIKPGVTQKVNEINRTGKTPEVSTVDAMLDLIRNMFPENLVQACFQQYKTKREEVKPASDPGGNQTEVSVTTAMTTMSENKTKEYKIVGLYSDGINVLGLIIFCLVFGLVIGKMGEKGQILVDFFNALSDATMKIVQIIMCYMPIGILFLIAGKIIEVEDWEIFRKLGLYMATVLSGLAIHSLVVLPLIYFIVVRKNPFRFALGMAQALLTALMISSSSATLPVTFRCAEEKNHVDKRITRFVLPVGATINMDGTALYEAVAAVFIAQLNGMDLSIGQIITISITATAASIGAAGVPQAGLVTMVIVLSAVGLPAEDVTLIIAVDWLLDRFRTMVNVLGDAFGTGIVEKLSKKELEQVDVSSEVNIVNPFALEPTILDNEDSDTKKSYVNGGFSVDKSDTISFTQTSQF", "assay": "cell-based or functional assay"}
{"binder": "B1", "values": [{"measurement": "decrease in Na+-dependent L-[3H]-glutamate uptake in HEK 293T cells, co-transfection at equal ratio", "value": "~20", "unit": "%"}]}
